Laboratory results taken from the supplement of paper PMC9170038.

Assays:
[1] = tested on: K4 kissing-loop RNA reporter; test: apparent KD of K4 kissing-loop reporter; higher = weaker reporter binding; conditions: Eterna round: R107;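 further: bound reporter read as fluorescence of individual clusters on recovered sequencing chips by microscopy, with normalized cluster intensities fitted with a binding model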
Description: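 RNA-MaP round R107: designed RNA switches with theophylline, tryptophan, arginine or FMN aptamers are transcribed on-chip within common flanks. They are titrated with a labelled K4 kissing-loop RNA reporter in RNA-MaP buffer (100 mM Tris pH 7.5, 80 mM KCl, 4 mM MgCl2), without ligand or with the indicated ligand. Median apparent KD per design.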

MS2 coat protein = test: apparent KD of MS2 coat protein; designed switch direction (-1 OFF switch, 1 ON switch): -1; higher = weaker reporter binding
Procedure, shortened: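 RNA switches sharing common flanks were transcribed by stalled E. coli RNA polymerase on Illumina chips. A doubling series of SNAP-549-labelled MS2 coat protein, from 0.7 or 1.5 nM to 3 µM, was applied in Tris-HCl pH 7.5 buffer with KCl, MgCl2, BSA, DTT, tRNA and Tween-20. Each step lasted 0.8–1.5 h at the bottom of the series and 10–20 min at the top. Normalised cluster fluorescence was curve-fitted, giving apparent KD as the per-design median over clusters.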

[2] = input ligand: theophylline 20 uM
[3] = input ligand: tryptophan 2.4 mM
[4] = input ligand: microRNA oligo, concentration not stated
[5] = Eterna round: R95, input ligand: microRNA oligo, concentration not stated

Sequence	apparent KD of K4 kissing-loop reporter ([1]; input ligand: FMN 200 uM)	apparent KD of K4 kissing-loop reporter ([1]; input ligand: arginine 13.2 mM)	apparent KD of K4 kissing-loop reporter ([1]; input ligand: none)	apparent KD of K4 kissing-loop reporter [1, 2]	apparent KD of K4 kissing-loop reporter [1, 3]	apparent KD of MS2 coat protein (MS2 coat protein; input ligand: FMN 200 uM)	apparent KD of MS2 coat protein (MS2 coat protein; [4])	apparent KD of MS2 coat protein (MS2 coat protein; input ligand: none)	apparent KD of MS2 coat protein (MS2 coat protein; [5])
AAAAUAAACCAGUGAUGUUGGUGUCUAGAUACCAGCGACGAAAGUCGCCCUUGGCAGCUAUGGACGUACAAAAUAAGUACGUCCU [MatMod 6 - Jieux - Same State - Theophylline A]	647 nM	459 nM	617 nM	679 nM	612 nM	–	–	–	–
AAACAUUGGUCUGAUACCAGCUGAUCGGAAACGAUCAUGCUGGAGUGAUGUUCCAGGAAAAGCCCUUGGCAGCAGACCGAUGAAA [MAT - Same State Theophlline B - Mod of Eli - D28]	94.7 nM	103 nM	75.6 nM	184 nM	137 nM	–	–	–	–
AAACGCUUGAAUAACAAGCGAAUAAAUUCGCGAGGACCGGUACGGCCGCCACUCGCUAACUGCGAGUGAUGUUCGAUAAUAAAAU [Mat - Mod of OpenEnded 3 - D14]	115 nM	91.8 nM	170 nM	176 nM	95 nM	–	–	–	–
AAACGUUGGUCUGAUACCAGCUGAUCGGAAACGAUCUUGCUGGAGUGAUGUUCCAGGAAAAGCCCUUGGCAGCAGACCGACGAAA [MAT - Same State Theophlline B - Mod of Eli - D25]	901 nM	714 nM	1510 nM	1260 nM	894 nM	–	–	–	–
AAAGGAGUGGAAGGAUAUCCUGGUGUGGGUGGUGUUAGUGAUGUUGGUGGUGCAGUGAUGUUGCGCGGAGAAGGUCCGGUAUUGG [BDazzled - #2 - Exc. FMN B]	485 nM	462 nM	437 nM	517 nM	410 nM	–	–	–	–
AAAUAAAACUAUGAUACCAGUCAUCACAGAGUGAUGUUUUGUGGCAUUUUAAACUUGGCAGACCCUUGGCAGCAUGAUAUAGGAG [theeternabot_sameState_KL_Theo_B_8]	486 nM	207 nM	318 nM	358 nM	261 nM	–	–	–	–
UUUGAAAAUGUAGGAUAUGGAAUAGGUAAGUAGCCAGAAGGACAUGAGGAUCACCCAUGUAAGAACAUAGGGAAAGAUAUGUUU [No clue what I'm doing] (Eterna round: R96, puzzle: Exclusion NG 1)	–	–	–	–	–	90.8 nM	32.9 nM	44.7 nM	–
UUUGAUUAUGUGAGGAUAUACUGUUUGUAUUGAUUGUAGAAGGUACAUGAGGAUCACCCAUGUUUUGUAUUUAU [JR_BME4_Sub036] (puzzle: Brourd's mod of Exclusion 4)	–	–	–	–	–	–	–	–	17.1 nM
UUUGUAUAUGAAGGAUAUACUUAACAUGAGGAUCACCCAUGUGGUGUUGUGAGUGAGUGAGUUUAGUAGAAGGUCAAUUCUUUU [JMF's solution 92] (Eterna round: R96, puzzle: Exclusion NG 2)	–	–	–	–	–	651 nM	417 nM	434 nM	–
UUUGUCUGUGUGAGGAUAUACUUUGUUUGGUCGUUGUAGAAGGCACAUGAGGAUCACCCAUGUAGUUUGUUGUG [JR_BME4_Sub014] (puzzle: Brourd's mod of Exclusion 4)	–	–	–	–	–	–	–	–	20.3 nM
UUUGUUUAUGUGAGGAUAUACUGUUUGUAUUGAUUGUAGAAGGUACAUGAGGAUCACCCAUGUUUUGUAUUUAU [JR_BME4_Sub035] (puzzle: Brourd's mod of Exclusion 4)	–	–	–	–	–	–	–	–	17.7 nM
UUUUAACAAGCGAGAUCCUACAUGAGGAUCACCCAUGUAUGUCAUGGUUUCCAUGGUCUUUUUGCUCGUCUUGUGUG [jl TITIN mod 7] (Eterna round: R97, puzzle: Sensor, turn-off variant 1)	–	–	–	–	–	40.9 nM	–	44.1 nM	–
UUUUAACAUGAGGAUCACCCAUGUGAGGAUAUCGAAAUUUAUAUUAAUAUUAAUAAUUCGAGAAGGCACAUUUU [JMF 21] (puzzle: Exclusion 1)	–	–	–	–	–	–	–	–	117 nM
